The record followed here is PMC9040744 (mBio, 2022).

The target of the assay is JUNV GP1 (Junín virus GP1 glycoprotein, residues 87 to 232) (Junín virus (JUNV), strain XJ13 …, UniProt C1K9J9). Nature of the assay: crystal structure. The following applies: both partners purified.

B1: Fab fragment of NAb JUN1 (Fab, V domains shown)
VH: LVQSVETGGGLVRPGNSLKLSCVTSGFTFSNYQMHWLRQPPGKRLEWIAVITVKSDNYGANYVESVKGRFAISRDDSKSSVYLEMNRLREEDTATYFCSRSGIYDGYYAYAMDYWGQGTSVTVSS
VL: SVVMTQSQKFMSTSVGDRVSITCKASQIVGTSVAWYQQKAGQSPKLLIYWASTRHTGVPDRFTAGGSGTDFTLTITNVQSEDLADYFCQQYATYPLTFGSGTKLELK
notes: also called Fab JUN1; JUN1 Fab; source: HEK293T, heavy and light chains coexpressed, purified
On to B1, for which the binding result is “binds”.
